This note sets out measurements from patent US20210261677A1 (ORICELL THERAPEUTICS, published 2021).

Assay [1] deals with T1, human PD-L1 on cells (CHO cells that stably expressed human PD-L1; MDA-MB-231 cells) (human, UniProt Q9NZQ7 19-290).
T1 construct: whole, on cells; Stably expressed on CHO cells; also called CHO cells expressing human PD-L1
Description: flow cytometry on CHO cells stably expressing human PD-L1, anti-human IgG-Fc DyLight 650 detection. The method, then:
The mixture was mixed well and incubated at 4° C. for 1 hr. After cell washing, Goat F(ab)₂ Anti-Human IgG-Fc (DyLight 650) (ab98593, Abcam) was added and incubated at 4° C. for 30 min. After cell washing, the fluorescence intensity was detected by a flow cytometer (Intellicyt iQue Screener).
A general note: Flow cytometry measures light scatter and fluorescence of single cells or particles in a stream.

In assay [2] the target is T2, recombinant human PD-L1-His protein (Origincell Therapeutics Co., Ltd.) (human, UniProt Q9NZQ7 19-238, limits assumed).
T2 construct: not shown: His tag
Description: BLI (Octet RED384), antibody on AHC sensor, PD-L1-His in solution.

Assay [3] has as its target T1, human PD-L1 on cells (CHO cells that …). Description: flow cytometry competition: biotin-labelled human PD-1-Fc at a subsaturated concentration on CHO cells stably expressing human PD-L1, antibody titrated, streptavidin R-PE detection. The method, then: (§1) After cell washing, Streptavidin R-PE Conjugate (life technology, SA10041) was added and incubated (4° C., 30 min). After cell washing, the fluorescence intensity was detected by a flow cytometer (Intellicyt iQue Screener).

In assay [4] the target is T3, mouse PD-L1 on CHO cells that stably expressed mouse PD-L1 (mouse, UniProt Q9EP73 19-290).
T3 construct: whole, on cells; also called CHO cells expressing mouse PD-L1
Description: flow cytometry competition: biotin-labelled mouse PD-1-Fc at a subsaturated concentration on CHO cells stably expressing mouse PD-L1, antibody titrated, streptavidin R-PE detection. The method, then:
as §1

Assay [5] deals with T3, mouse PD-L1 on CHO cells that stably …. Description: flow cytometry on CHO cells stably expressing mouse PD-L1, anti-human IgG-Fc DyLight 650 detection. How it is done:
The mixture was mixed well and incubated at 4° C. for 1 hr. After cell washing, Goat F(ab′)₂ Anti-Human IgG-Fc (DyLight 650) (ab98593) was added and incubated at 4° C. for 30 min. After cell washing, the fluorescence intensity was detected by a flow cytometer (Intellicyt iQue Screener).

Assay [6] shares this target. The assay can be described thus: flow cytometry competition: biotin-labelled mouse PD-1-Fc at a subsaturated concentration on CHO cells stably expressing mouse PD-L1, antibody titrated, streptavidin R-PE detection. The method, then:
as §1
This is another data set of the same source.

Assay [7] has as its target T4, recombinant human CD137-His protein (Origincell Therapeutics Co., Ltd.) (human, UniProt Q07011 24-186, limits assumed).
T4 construct: also called Human 4-1BB-His; not shown: His tag
The assay can be described thus: BLI (Octet RED384), antibody on AHC sensor, CD137-His in solution. How it is done: (§2) The antigen-antibody binding kinetics were analyzed by the biofilm interference (BLI) technology, using a molecular interaction analyzer (Octet RED384, purchased from Pall ForteBio Analytics Co., Ltd.) and using a PBS buffer containing 0.1% BSA and 0.02% Tween 20. […] The AHC sensor was regenerated by glycine pulses and then reused. The obtained results would be analyzed by Octet Data Analysis 9.0 software (Pall ForteBio Analytics Co., Ltd.) to give the KD, Kₒₙ (1/Ms) and Koff (1/s).
(In general: In BLI a coated tip is dipped into the sample, and binding shifts an interference pattern.)

Assay [8] addresses T2, recombinant human PD-L1-His protein …. The assay can be described thus: BLI (Octet RED384), antibody on AHC sensor, PD-L1-His in solution. How it is done: as §2
This is another data set of the same source.

Assay [9] deals with T1, human PD-L1 on cells (CHO cells that …). Description: flow cytometry competition: biotin-labelled human PD-1-Fc at a subsaturated concentration on CHO cells stably expressing human PD-L1, antibody titrated, streptavidin R-PE detection. How it is done:
as §1
This is another data set of the same source.

Assay [10] shares this target. The assay can be described thus: flow cytometry on MDA-MB-231 cells (human PD-L1), anti-human IgG-Fc DyLight 650 detection. How it is done: Human breast cell strain MDA-MB-231 (Shanghai Chinese Academy of Sciences Cell Library) highly expresses the human PD-L1 molecule. […] After cell washing, Goat F(ab′)₂ Anti-Human IgG-Fc (DyLight 650) (ab98593, abcam) was added and incubated at 4° C. for 30 min. After cell washing, the fluorescence intensity was detected by a flow cytometer (Intellicyt iQue Screener).

Assay [11] concerns the target T5, recombinant mouse PD-L1-Fc protein (M5251, ACROBiosystems Inc.) (mouse, UniProt Q9EP73 19-238).
T5 construct: Bought; Labeled with biotin for the BLI assays; unlabeled in the phage ELISA; also called Mouse PD-L1-Fc-Biotin; not shown: Fc part
The assay can be described thus: BLI (Octet RED384), biotinylated antigen on SA sensor, antibody in solution. The method, then: (§3) The recombinant human PD-L1-Fc protein and the recombinant mouse PD-L1-Fc were labeled with biotin (EZ-Link Sulfo-NHS-LC-Biotin, Pierce, 21327). The antigen-antibody binding kinetics were analyzed by the biofilm interference (BLI) technology, using a molecular interaction analyzer (Octet RED384, purchased from Pall ForteBio Analytics Co., Ltd.) and using a PBS buffer containing 0.1% BSA and 0.02% Tween 20. […] The obtained results would be analyzed by Octet Data Analysis 9.0 software (Pall ForteBio Analytics Co., Ltd.) to give the KD, Kₒₙ (1/Ms) and Koff (1/s).

The target in assay [12] is T6, recombinant human PD-L1-Fc protein (Origincell Therapeutics Co., Ltd.) (human, UniProt Q9NZQ7 19-238, limits assumed).
T6 construct: Labeled with biotin (EZ-Link Sulfo-NHS-LC-Biotin) for the BLI assays; unlabeled in the phage ELISA; also called Human PD-L1-Fc-Biotin; not shown: Fc part
Described as above. How it is done:
as §3

Read-outs that look alike come from different tables or passages of the source.

T5 sequence (Q9EP73 19-238 limits assumed): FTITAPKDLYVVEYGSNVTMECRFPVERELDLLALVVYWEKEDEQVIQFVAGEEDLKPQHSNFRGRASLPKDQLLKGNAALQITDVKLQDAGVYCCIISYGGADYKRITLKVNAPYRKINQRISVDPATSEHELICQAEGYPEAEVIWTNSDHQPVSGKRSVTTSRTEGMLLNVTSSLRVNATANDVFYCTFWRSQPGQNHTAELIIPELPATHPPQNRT
T3 sequence (Q9EP73 19-290): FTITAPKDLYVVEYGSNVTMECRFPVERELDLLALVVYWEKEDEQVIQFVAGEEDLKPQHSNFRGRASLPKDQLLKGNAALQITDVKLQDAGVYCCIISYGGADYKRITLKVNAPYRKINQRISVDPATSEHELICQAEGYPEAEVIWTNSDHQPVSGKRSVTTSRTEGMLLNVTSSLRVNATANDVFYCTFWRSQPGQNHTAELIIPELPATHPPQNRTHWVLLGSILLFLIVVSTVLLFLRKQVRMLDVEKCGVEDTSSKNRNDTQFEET
T6 sequence (Q9NZQ7 19-238 limits assumed): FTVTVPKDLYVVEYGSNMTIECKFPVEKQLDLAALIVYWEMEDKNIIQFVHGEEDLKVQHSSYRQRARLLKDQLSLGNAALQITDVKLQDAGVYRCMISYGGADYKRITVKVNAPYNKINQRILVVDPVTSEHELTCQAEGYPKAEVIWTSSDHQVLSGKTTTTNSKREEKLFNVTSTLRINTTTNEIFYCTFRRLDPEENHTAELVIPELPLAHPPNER
T2 sequence (Q9NZQ7 19-238 limits assumed): as above
T1 sequence (Q9NZQ7 19-290): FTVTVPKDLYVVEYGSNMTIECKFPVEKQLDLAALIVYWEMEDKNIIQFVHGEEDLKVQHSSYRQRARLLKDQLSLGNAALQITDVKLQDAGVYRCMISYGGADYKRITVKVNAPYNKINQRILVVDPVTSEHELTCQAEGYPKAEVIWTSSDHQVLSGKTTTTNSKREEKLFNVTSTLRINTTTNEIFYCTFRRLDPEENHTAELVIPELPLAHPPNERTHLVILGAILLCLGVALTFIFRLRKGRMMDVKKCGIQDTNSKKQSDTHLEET

B1: PD-L1 antibody YN-039 (antibody, human IgG1, lambda, V domains shown)
VH: QVQLVQSGAEVKKPGSSVKVSCKASRGPFSTYAISWVRQAPGQGLEWMGRIIPILGIANYAQKFQGRVTITADKSTSTAYMELSSLRSEDTAVYYCARTMGEYSYGNYDYWGQGTLVTVSS
VL: QSALTQPASVSGSPGQSITISCTGTVSDVGGYNEVSWYQQHPGKAPKLMIYENSIRPSGVSHRFSGSKSGNTASLTISGLQAEDEADYYCQSYDSSLSGTVFGGGTKLTVLG
notes: full-length IgG1,lambda
As to B1, the concentration giving a half-maximal response (EC50 (read off the curve)) in assay [1] was 3 to 4 nM. Also, in assay [2], the Kd was determined as 0.485 nM, the koff was determined as 0.000173 s⁻¹ and the kon came out at 356000 M⁻¹ s⁻¹. Further, the “IC50 (read off the curve)” value in [3] is ~3 nM. The “IC50 (read off the curve)” value in assay [4] was ~4 nM. For the same molecule, in assay [5], the “EC50 (read off the curve)” value is ~6 nM.

B2: PD-L1 antibody YN-037 (antibody, human IgG1, lambda, V domains shown)
VH: QVQLVQSGAEVKKPGSSVKVSCKASRGPFSTYAISWVRQAPGQGLEWMGRIIPILGIANYAQKFQGRVTITADKSTSTAYMELSSLRSEDTAVYYCARTMGEYSYGNYDYWGQGTLVTVSS
VL: QSALTQPASVSGSPGQSITISCTGTSSSVGGYREVSWYQQHPGKAPKLMIYENSIRPSGVSHRFSGSKSGNTASLTISGLQAEDEADYYCQSYDSSLSGTVFGGGTKLTVLG
notes: full-length IgG1,lambda
Regarding B2, in [1], the half-maximal effective concentration (EC50 (read off the curve)) lay within 3 to 4 nM. In assay [2], the Kd came to 0.382 nM, the koff was 0.000136 s⁻¹ and the kon came to 355000 M⁻¹ s⁻¹. The “IC50 (read off the curve)” value in [3] is ~3 nM. Further, the “IC50 (read off the curve)” value in assay [4] is ~4 nM. Also, in assay [5], the concentration giving a half-maximal response (EC50 (read off the curve)) was ~6 nM.

B3: PD-L1 antibody YN-038 (antibody, human IgG1, lambda, V domains shown)
VH: QVQLVQSGAEVKKPGSSVKVSCKASRGPFSTYAISWVRQAPGQGLEWMGRIIPILGIANYAQKFQGRVTITADKSTSTAYMELSSLRSEDTAVYYCARTMGEYSYGNYDYWGQGTLVTVSS
VL: QSALTQPASVSGSPGQSITISCTGTRSDVGGYNEVSWYQQHPGKAPKLMIYENSIRPSGVSHRFSGSKSGNTASLTISGLQAEDEADYYCQSYDSSLSGTVFGGGTKLTVLG
notes: full-length IgG1,lambda
Consider B3, for which, in assay [1], the “EC50 (read off the curve)” value is 3 to 4 nM. For the same molecule, in [2], the Kd came to 0.447 nM, the koff is 0.000156 s⁻¹ and the on-rate (kon) is 350000 M⁻¹ s⁻¹. In addition, the “IC50 (read off the curve)” value in [3] is ~3 nM. Further, the “IC50 (read off the curve)” value in assay [4] is ~4 nM. The “EC50 (read off the curve)” value in [5] is ~6 nM.

B4: anti-PD-L1/CD137 bispecific antibody YN-051 (bispecific antibody, human IgG1, lambda, N297A)
heavy: not shown
light: QSALTQPASVSGSPGQSITISCTGTVSEVGGYNEVSWYQQHPGKAPKLMIYGNSNRPSGVSNRFSGSKSGNTASLTISGLQAEDEADYYCQSYDSSLSGTVFGGGTKLTVLGQPKAAPSVTLFPPSSEELQANKATLVCLISDFYPGAVTVAWKADSSPVKAGVETTTPSKQSNNKYAASSYLSLTPEQWKSHRSYSCQVTHEGSTVEKTVAPTECS
notes: First polypeptide (built from the YN-035 heavy chain and the YN-006 heavy and light chain genes) and second polypeptide (= YN-035 light chain); SDS-PAGE: about 200 kDa non-reduced, about 75 and 25 kDa reduced
Take B4: in assay [6], the “IC50 (read off the curve)” value was ~5 nM. In [7], the Kd turned out to be 1.64 nM, the koff was 0.000147 s⁻¹ and the kon amounted to 89900 M⁻¹ s⁻¹. Further, in assay [8], the Kd turned out to be 0.517 nM, the koff is 0.000275 s⁻¹ and the kon came to 532000 M⁻¹ s⁻¹. Also, in [9], the “IC50 (read off the curve)” value was ~2 nM. Also, the “EC50 (read off the curve)” value in assay [10] is ~1 nM.

B5: anti-PD-L1/CD137 bispecific antibody YN-007 (bispecific antibody)
heavy: not shown
light: QSALTQPASVSGSPGQSITISCTGTSSDVGGYNYVSWYQQHPGKAPKLMIYGNSNRPSGVSNRFSGSKSGNTASLTISGLQAEDEADYYCQSYDSSLSGSVFGGGTKLTVLGQPKAAPSVTLFPPSSEELQANKATLVCLISDFYPGAVTVAWKADSSPVKAGVETTTPSKQSNNKYAASSYLSLTPEQWKSHRSYSCQVTHEGSTVEKTVAPTECS
notes: First polypeptide (built from the YN-003 heavy chain and the YN-006 heavy and light chain genes) and second polypeptide (= YN-003 light chain); SDS-PAGE: about 200 kDa non-reduced, about 75 and 25 kDa reduced
For B5, in assay [11], the Kd was determined as 1.34 nM, the koff came out at 0.00109 s⁻¹ and the kon came to 810000 M⁻¹ s⁻¹. In assay [12], the Kd was found to be 0.525 nM, the koff came to 0.000592 s⁻¹ and the kon is 1.13e+06 M⁻¹ s⁻¹.

B6: anti-PD-L1/CD137 bispecific antibody YN-052 (bispecific antibody, human IgG1, lambda, N297A)
heavy: not shown
light: QSALTQPASVSGSPGQSITISCTGTVSEVGGYNEVSWYQQHPGKAPKLMIYGNSNRPSGVSNRFSGSKSGNTASLTISGLQAEDEADYYCQSYDSSLSGTVFGGGTKLTVLGQPKAAPSVTLFPPSSEELQANKATLVCLISDFYPGAVTVAWKADSSPVKAGVETTTPSKQSNNKYAASSYLSLTPEQWKSHRSYSCQVTHEGSTVEKTVAPTECS
notes: First polypeptide (built from the YN-036 heavy chain and the YN-006 heavy and light chain genes) and second polypeptide (= YN-036 light chain); SDS-PAGE: about 200 kDa non-reduced, about 75 and 25 kDa reduced
On to B6, for which the “IC50 (read off the curve)” value in assay [6] was ~5 nM. For the same molecule, in assay [7], the dissociation constant Kd stood at 2.08 nM, the koff is 0.000174 s⁻¹ and the kon amounted to 83700 M⁻¹ s⁻¹. In addition, in assay [8], the Kd worked out at 0.572 nM, the dissociation rate constant (koff) is 0.000257 s⁻¹ and the kon was 448000 M⁻¹ s⁻¹. The “IC50 (read off the curve)” value in [9] was ~3 nM. Moreover, the “EC50 (read off the curve)” value in [10] was ~2 nM.

Broadly, the EC50 (read off the curve) is the concentration that produces a half-maximal response. Usually Kd stands for the concentration at which binding is half-saturated. In general, koff refers to the rate constant with which the complex falls apart. The term kon denotes the second-order rate constant of association.
